These results are taken from PMC5424802 (Intrinsically Disordered Proteins, 2013).

The experiment deals with T1, Stabilin CTD (C-terminal domain of stabilin-2, truncated intracellular region) (human, UniProt Q8WWQ8 2501-2551).
T1 sequence: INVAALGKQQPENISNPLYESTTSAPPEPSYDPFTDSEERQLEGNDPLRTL
Briefly: ITC.

MSDKPDMAEIEKFDKSKLKKTETQEKNPLPSKETIEQEKQAGES (natural protein, not fully specified) [Thymosin β4] registered a dH of -1.75 kcal/mol.
